According to publication doi:10.1101/2020.10.05.327064 (bioRxiv, 2020):

T1: Human Hsf1 wild type (human), Q00613
T1 chain: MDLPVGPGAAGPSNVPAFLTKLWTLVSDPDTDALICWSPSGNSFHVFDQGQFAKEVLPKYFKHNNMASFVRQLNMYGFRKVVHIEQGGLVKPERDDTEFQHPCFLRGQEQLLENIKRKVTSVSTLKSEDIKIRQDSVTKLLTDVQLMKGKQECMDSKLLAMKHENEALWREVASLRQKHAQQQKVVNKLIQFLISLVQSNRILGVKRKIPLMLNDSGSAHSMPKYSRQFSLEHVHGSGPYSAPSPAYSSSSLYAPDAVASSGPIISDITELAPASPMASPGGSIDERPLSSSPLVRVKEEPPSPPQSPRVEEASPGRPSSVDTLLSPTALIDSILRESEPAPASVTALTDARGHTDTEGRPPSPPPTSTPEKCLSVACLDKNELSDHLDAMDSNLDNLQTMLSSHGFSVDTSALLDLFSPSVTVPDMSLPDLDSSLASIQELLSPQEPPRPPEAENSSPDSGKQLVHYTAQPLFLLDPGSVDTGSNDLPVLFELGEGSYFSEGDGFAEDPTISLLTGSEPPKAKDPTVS


Tests used:
[1] = molecular target: T1, Human Hsf1 wild type (human), Q00613; assay: SEC; settings: remark: other sources report otherwise
SEC = molecular target: the molecule itself; assay: SEC

Row | stoichiometry N [1] | Binder | stoichiometry N (SEC)
1 | 3 | Human Hsf1 wild type, Q00613 1-529 (natural protein) MDLPVGPGAAGPSNVPAFLTKLWTLVSDPDTDALICWSPSGNSFHVFDQGQFAKEVLPKYFKHNNMASFVRQLNMYGFRKVVHIEQGGLVKPERDDTEFQHPCFLRGQEQLLENIKRKVTSVSTLKSEDIKIRQDSVTKLLTDVQLMKGKQECMDSKLLAMKHENEALWREVASLRQKHAQQQKVVNKLIQFLISLVQSNRILGVKRKIPLMLNDSGSAHSMPKYSRQFSLEHVHGSGPYSAPSPAYSSSSLYAPDAVASSGPIISDITELAPASPMASPGGSIDERPLSSSPLVRVKEEPPSPPQSPRVEEASPGRPSSVDTLLSPTALIDSILRESEPAPASVTALTDARGHTDTEGRPPSPPPTSTPEKCLSVACLDKNELSDHLDAMDSNLDNLQTMLSSHGFSVDTSALLDLFSPSVTVPDMSLPDLDSSLASIQELLSPQEPPRPPEAENSSPDSGKQLVHYTAQPLFLLDPGSVDTGSNDLPVLFELGEGSYFSEGDGFAEDPTISLLTGSEPPKAKDPTVS | 
2 |  | Hsf1-S303E,S307E (natural protein) MDLPVGPGAAGPSNVPAFLTKLWTLVSDPDTDALICWSPSGNSFHVFDQGQFAKEVLPKYFKHNNMASFVRQLNMYGFRKVVHIEQGGLVKPERDDTEFQHPCFLRGQEQLLENIKRKVTSVSTLKSEDIKIRQDSVTKLLTDVQLMKGKQECMDSKLLAMKHENEALWREVASLRQKHAQQQKVVNKLIQFLISLVQSNRILGVKRKIPLMLNDSGSAHSMPKYSRQFSLEHVHGSGPYSAPSPAYSSSSLYAPDAVASSGPIISDITELAPASPMASPGGSIDERPLSSSPLVRVKEEPPEPPQEPRVEEASPGRPSSVDTLLSPTALIDSILRESEPAPASVTALTDARGHTDTEGRPPSPPPTSTPEKCLSVACLDKNELSDHLDAMDSNLDNLQTMLSSHGFSVDTSALLDLFSPSVTVPDMSLPDLDSSLASIQELLSPQEPPRPPEAENSSPDSGKQLVHYTAQPLFLLDPGSVDTGSNDLPVLFELGEGSYFSEGDGFAEDPTISLLTGSEPPKAKDPTVS | 3
